In PMC7213981, “Enhancer architecture sensitizes cell specific responses to Notch gene dose via a bind and discard mechanism”:

Experiments:
[1] = molecular target: T1, Su(H) (Drosophila melanogaster, UniProt P28159 98-523); assay: EMSA; both probes in the same reaction; Su(H) 10-320 nM, no co-activators; additive, slightly lower affinity than 2xCSL; Native PAGE EMSA, LICOR Odyssey CLx imaging; equal amounts of both probes in one reaction; buffer, salt, pH and temperature not stated (as in Uhl 2010, 2016); settings: protein: recombinant; label: 5' IRDye-800 on the complementary strand (primer S25)
[2] = molecular target: T2, RBPJ (CSL) (mouse, UniProt P31266 53-474); assay: EMSA; both probes in the same reaction; RBPJ 10-320 nM, no co-activators; additive, slightly lower affinity than 2xCSL; Native PAGE EMSA, LICOR Odyssey CLx imaging; equal amounts of both probes in one reaction; buffer, salt, pH and temperature not stated (as in Uhl 2010, 2016); settings: protein: recombinant; label: 5' IRDye-800 on the complementary strand (primer S25)
[3] = molecular target: T3, RBPJ (CSL);N1ICD;MAML1 (mouse;mouse;human, UniProt P31266;Q01705;Q92585 53-474;1744-2113;1-280, ||); assay: EMSA; both probes in the same reaction; 1 uM NICD/MAML; cooperative, both sites preferentially filled; Native PAGE EMSA, LICOR Odyssey CLx imaging; equal amounts of both probes in one reaction; buffer, salt, pH and temperature not stated (as in Uhl 2010, 2016); settings: protein: recombinant;recombinant;recombinant; copies: 1;1;1; label: 5' IRDye-800 on the complementary strand (primer S25)
[4] = molecular target: T4, Su(H);NICD;Mastermind (Mam) (Drosophila melanogaster;Drosophila …, UniProt P28159;P07207;P21519 98-523;1763-2412;87-307, ||); assay: EMSA; both probes in the same reaction; 1 uM NICD/Mam; cooperative, less 2NCM complex than the mouse proteins; Native PAGE EMSA, LICOR Odyssey CLx imaging; equal amounts of both probes in one reaction; buffer, salt, pH and temperature not stated (as in Uhl 2010, 2016); settings: protein: recombinant;recombinant;recombinant; copies: 1;1;1; label: 5' IRDye-800 on the complementary strand (primer S25)
[5] = molecular target: T1, Su(H); assay: EMSA; both probes in the same reaction; Su(H) 10-320 nM, no co-activators; additive, slightly higher affinity than 1xSPS; Native PAGE EMSA, LICOR Odyssey CLx imaging; equal amounts of both probes in one reaction; buffer, salt, pH and temperature not stated (as in Uhl 2010, 2016); settings: protein: recombinant; label: 5' IRDye-700 on the complementary strand (primer S25)
[6] = molecular target: T3, RBPJ (CSL);N1ICD;MAML1; assay: EMSA; both probes in the same reaction; 1 uM NICD/MAML; additive, not cooperative, less preferred than 1xSPS; Native PAGE EMSA, LICOR Odyssey CLx imaging; equal amounts of both probes in one reaction; buffer, salt, pH and temperature not stated (as in Uhl 2010, 2016); settings: protein: recombinant;recombinant;recombinant; copies: 1;1;1; label: 5' IRDye-700 on the complementary strand (primer S25)
[7] = molecular target: T4, Su(H);NICD;Mastermind (Mam); assay: EMSA; both probes in the same reaction; 1 uM NICD/Mam; additive, not cooperative, less preferred than 1xSPS; Native PAGE EMSA, LICOR Odyssey CLx imaging; equal amounts of both probes in one reaction; buffer, salt, pH and temperature not stated (as in Uhl 2010, 2016); settings: protein: recombinant;recombinant;recombinant; copies: 1;1;1; label: 5' IRDye-700 on the complementary strand (primer S25)
[8] = molecular target: T2, RBPJ (CSL); assay: EMSA; both probes in the same reaction; RBPJ 10-320 nM, no co-activators; additive, slightly higher affinity than 1xSPS; Native PAGE EMSA, LICOR Odyssey CLx imaging; equal amounts of both probes in one reaction; buffer, salt, pH and temperature not stated (as in Uhl 2010, 2016); settings: protein: recombinant; label: 5' IRDye-700 on the complementary strand (primer S25)

Measured: binding result

T3 sequence (P31266 53-474, chain 1 of 3): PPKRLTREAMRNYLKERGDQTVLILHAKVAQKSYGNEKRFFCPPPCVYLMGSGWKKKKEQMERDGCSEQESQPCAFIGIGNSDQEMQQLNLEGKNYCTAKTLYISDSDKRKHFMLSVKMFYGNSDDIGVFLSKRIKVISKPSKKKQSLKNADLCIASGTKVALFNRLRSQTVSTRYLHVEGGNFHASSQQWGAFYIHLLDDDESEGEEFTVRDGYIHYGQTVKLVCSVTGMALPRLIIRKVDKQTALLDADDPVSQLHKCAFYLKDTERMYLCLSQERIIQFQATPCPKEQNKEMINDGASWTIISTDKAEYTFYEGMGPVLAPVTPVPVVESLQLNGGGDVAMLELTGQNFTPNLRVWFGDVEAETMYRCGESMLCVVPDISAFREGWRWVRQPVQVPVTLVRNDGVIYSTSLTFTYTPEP
T3 sequence (Q01705 1744-2113, chain 2 of 3): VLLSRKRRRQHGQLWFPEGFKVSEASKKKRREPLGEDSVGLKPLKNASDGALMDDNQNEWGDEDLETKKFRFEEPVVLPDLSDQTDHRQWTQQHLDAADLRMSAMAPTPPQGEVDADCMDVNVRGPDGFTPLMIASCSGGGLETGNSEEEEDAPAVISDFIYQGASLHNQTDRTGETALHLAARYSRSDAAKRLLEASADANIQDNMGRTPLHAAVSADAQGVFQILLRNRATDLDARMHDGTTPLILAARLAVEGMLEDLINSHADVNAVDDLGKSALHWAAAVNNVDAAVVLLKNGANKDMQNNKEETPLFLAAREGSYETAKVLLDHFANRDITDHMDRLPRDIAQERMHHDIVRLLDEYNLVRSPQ
T3 sequence (Q92585 1-280, chain 3 of 3): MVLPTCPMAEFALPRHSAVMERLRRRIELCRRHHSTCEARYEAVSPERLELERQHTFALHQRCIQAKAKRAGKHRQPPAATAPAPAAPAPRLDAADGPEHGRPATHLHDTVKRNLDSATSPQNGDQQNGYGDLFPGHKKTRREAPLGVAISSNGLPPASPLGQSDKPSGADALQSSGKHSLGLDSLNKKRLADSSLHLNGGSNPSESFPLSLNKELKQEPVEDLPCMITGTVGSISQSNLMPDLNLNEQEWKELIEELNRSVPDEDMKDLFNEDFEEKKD
T2 sequence (P31266 53-474): as the sequence (P31266 53-474, chain 1 of 3) above
T4 sequence (P28159 98-523, chain 1 of 3): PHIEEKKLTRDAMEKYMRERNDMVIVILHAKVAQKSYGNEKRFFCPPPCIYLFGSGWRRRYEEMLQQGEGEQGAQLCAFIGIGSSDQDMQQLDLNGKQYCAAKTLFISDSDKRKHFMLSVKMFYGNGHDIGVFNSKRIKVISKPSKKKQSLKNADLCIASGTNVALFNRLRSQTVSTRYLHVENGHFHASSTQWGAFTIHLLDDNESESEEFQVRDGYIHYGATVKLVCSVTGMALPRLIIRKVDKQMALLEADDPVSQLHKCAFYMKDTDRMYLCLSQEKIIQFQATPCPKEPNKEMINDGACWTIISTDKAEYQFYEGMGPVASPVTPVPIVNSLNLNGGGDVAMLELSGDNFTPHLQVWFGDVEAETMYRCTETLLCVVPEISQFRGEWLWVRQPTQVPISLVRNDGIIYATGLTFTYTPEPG
T4 sequence (P07207 1763-2412, chain 2 of 3): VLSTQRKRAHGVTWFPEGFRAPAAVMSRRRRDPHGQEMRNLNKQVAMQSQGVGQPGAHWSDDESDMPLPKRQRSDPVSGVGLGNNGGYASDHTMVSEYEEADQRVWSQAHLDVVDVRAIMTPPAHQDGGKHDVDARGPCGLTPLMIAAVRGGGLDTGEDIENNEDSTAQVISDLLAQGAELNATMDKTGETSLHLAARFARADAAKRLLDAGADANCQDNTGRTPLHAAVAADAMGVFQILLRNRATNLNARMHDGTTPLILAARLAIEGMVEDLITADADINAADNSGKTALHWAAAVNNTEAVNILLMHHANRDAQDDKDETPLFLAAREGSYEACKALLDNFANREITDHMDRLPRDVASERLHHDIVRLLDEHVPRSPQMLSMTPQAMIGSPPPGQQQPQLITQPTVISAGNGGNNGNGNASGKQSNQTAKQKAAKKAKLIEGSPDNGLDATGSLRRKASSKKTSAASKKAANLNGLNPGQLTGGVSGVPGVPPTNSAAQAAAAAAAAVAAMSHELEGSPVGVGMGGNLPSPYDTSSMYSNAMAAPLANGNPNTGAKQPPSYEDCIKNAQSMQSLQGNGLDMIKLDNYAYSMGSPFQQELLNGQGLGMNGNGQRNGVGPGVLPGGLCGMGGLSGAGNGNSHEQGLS
T4 sequence (P21519 87-307, chain 3 of 3): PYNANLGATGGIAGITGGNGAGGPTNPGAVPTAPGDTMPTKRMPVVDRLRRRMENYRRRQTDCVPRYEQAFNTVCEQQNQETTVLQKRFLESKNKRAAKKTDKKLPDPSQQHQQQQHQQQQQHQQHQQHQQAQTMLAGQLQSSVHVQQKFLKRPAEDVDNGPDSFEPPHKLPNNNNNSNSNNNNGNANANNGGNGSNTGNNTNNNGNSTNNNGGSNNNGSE
T1 sequence (P28159 98-523): as the sequence (P28159 98-523, chain 1 of 3) above

B1: 1xSPS EMSA probe (dsDNA)
DNA 1: GCTACGTGGGAAAGGAGCAAACTGCGTTTCCCACGTTCGTAGTGCGGGCGTGGCT
DNA 2: AGCCACGCCCGCACTACGAACGTGGGAAACGCAGTTTGCTCCTTTCCCACGTAGC
binds: [1] | [2] | [3] | [4]

B2: 2xCSL EMSA probe (dsDNA)
DNA 1: CGAACGTGGGAAACCTAGGCTAGAGGCACCGTGGGAAACTAGTGCGGGCGTGGCT
DNA 2: AGCCACGCCCGCACTAGTTTCCCACGGTGCCTCTAGCCTAGGTTTCCCACGTTCG
binds: [5] | [6] | [7] | [8]
